The values below come from the supplement of paper PMC10567573.

B1: TOR1AIP2 (parent)
chain: SPGHSSAGQEGEDTLRRRLLAPEA
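Further: lentivirally expressed fusions sorted by FACS into six bins by GFP to DsRed ratio, PSI derived from sequencing read proportions per bin multiplied by bin number.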

This data set covers variants of B1. Kind of data set: protein stability index of a GFP-peptide fusion (GPS, HEK-293T) (PSI 1-6); higher = more stable. The following applies: c terminus: a fixed tail appended.
On to SPGHSSAGQEGEDTLRRRLWAPEA [L20W], for which the protein stability index amounted to 4.73.

For SPGHSSAGQEGEDTLRRRLMAPEA [L20M], the protein stability index stood at 5.01.

Regarding SPGHSSAGQEGEDTLRRRLGAPEA [L20G], the protein stability index turned out to be 5.54.

With SPGHSSAGQEGEDTLRRRLVAPEA [L20V], the protein stability index turned out to be 5.21.

As for SPGHSSAGQEGEDTLRRRLRAPEA [L20R], the protein stability index stood at 5.26.

SPGHSSAGQEGEDTLRRRLAAPEA [L20A]: the protein stability index came to 5.64.

As for SPGHSSAGQEGEDTLRRRLSAPEA [L20S], the protein stability index was found to be 4.95.

For the variant SPGHSSAGQEGEDTLRRRLPAPEA [L20P], the protein stability index amounted to 5.15.

Turning to SPGHSSAGQEGEDTLRRRLNAPEA [L20N], the protein stability index was 5.25.

SPGHSSAGQEGEDTLRRRLKAPEA [L20K]: the protein stability index stood at 5.38.

Consider SPGHSSAGQEGEDTLRRRLYAPEA [L20Y], for which the protein stability index amounted to 4.51.

SPGHSSAGQEGEDTLRRRLDAPEA [L20D]: the protein stability index was 4.7.

With SPGHSSAGQEGEDTLRRRLEAPEA [L20E], the protein stability index was 4.9.

Turning to SPGHSSAGQEGEDTLRRRLHAPEA [L20H], the protein stability index is 5.29.

SPGHSSAGQEGEDTLRRRLIAPEA [L20I]: the protein stability index was determined as 4.94.

For SPGHSSAGQEGEDTLRRRLTAPEA [L20T], the protein stability index came to 5.33.

Turning to SPGHSSAGQEGEDTLRRRLQAPEA [L20Q], the protein stability index amounted to 5.63.

For the variant SPGHSSAGQEGEDTLRRRLFAPEA [L20F], the protein stability index came out at 3.94.

Regarding SPGHSSAGQEGEDTLRRRLLAEEA [P22E], the protein stability index came to 4.95.

Turning to SPGHSSAGQEGEDTLRRRLLAVEA [P22V], the protein stability index stood at 4.8.

Consider SPGHSSAGQEGEDTLRRRLLACEA [P22C], for which the protein stability index worked out at 4.41.

Consider SPGHSSAGQEGEDTLRRRLLAQEA [P22Q], for which the protein stability index worked out at 5.42.

With SPGHSSAGQEGEDTLRRRLLAKEA [P22K], the protein stability index was found to be 5.46.

SPGHSSAGQEGEDTLRRRLLATEA [P22T]: the protein stability index stood at 4.47.

Take SPGHSSAGQEGEDTLRRRLLAHEA [P22H]: the protein stability index was 5.27.

Turning to SPGHSSAGQEGEDTLRRRLLAGEA [P22G], the protein stability index was 5.11.

Turning to SPGHSSAGQEGEDTLRRRLLAAEA [P22A], the protein stability index is 4.42.

Consider SPGHSSAGQEGEDTLRRRLLASEA [P22S], for which the protein stability index worked out at 4.92.

As for SPGHSSAGQEGEDTLRRRLLAREA [P22R], the protein stability index came to 4.99.

For the variant SPGHSSAGQEGEDTLRRRLLAYEA [P22Y], the protein stability index was 4.41.

SPGHSSAGQEGEDTLRRRLLAWEA [P22W]: the protein stability index came to 4.84.

On to SPGHSSAGQEGEDTLRRRLLADEA [P22D], for which the protein stability index is 5.34.

Take SPGHSSAGQEGEDTLRRRLLANEA [P22N]: the protein stability index turned out to be 5.76.

Take SPGHSSAGQEGEDTLRRRLLAIEA [P22I]: the protein stability index turned out to be 5.16.

Regarding SPGHSSAGQEGEDTLRRRLLALEA [P22L], the protein stability index was 4.59.

As for SPGHSSAGQEGEDTLRRRLLAFEA [P22F], the protein stability index turned out to be 4.92.

As to SPGHSSAGQEGEDTLRRRLLAMEA [P22M], the protein stability index turned out to be 4.93.

On to SPGHSSAGQEGEDTLRRRSLAPEA [L19S], for which the protein stability index stood at 5.24.

As to SPGHSSAGQEGEDTLRRRVLAPEA [L19V], the protein stability index worked out at 4.9.

On to SPGHSSAGQEGEDTLRRRILAPEA [L19I], for which the protein stability index was 3.39.

On to SPGHSSAGQEGEDTLRRRCLAPEA [L19C], for which the protein stability index turned out to be 4.99.

Consider SPGHSSAGQEGEDTLRRRELAPEA [L19E], for which the protein stability index stood at 5.46.

For the variant SPGHSSAGQEGEDTLRRRQLAPEA [L19Q], the protein stability index was 5.33.

In the case of SPGHSSAGQEGEDTLRRRKLAPEA [L19K], the protein stability index came out at 5.54.

As to SPGHSSAGQEGEDTLRRRGLAPEA [L19G], the protein stability index worked out at 5.45.

As to SPGHSSAGQEGEDTLRRRDLAPEA [L19D], the protein stability index worked out at 5.35.

Take SPGHSSAGQEGEDTLRRRRLAPEA [L19R]: the protein stability index is 4.89.

Turning to SPGHSSAGQEGEDTLRRRFLAPEA [L19F], the protein stability index was 4.73.

On to SPGHSSAGQEGEDTLRRRNLAPEA [L19N], for which the protein stability index is 5.34.

As to SPGHSSAGQEGEDTLRRRHLAPEA [L19H], the protein stability index came to 5.52.

For the variant SPGHSSAGQEGEDTLRRRYLAPEA [L19Y], the protein stability index was 4.86.

Take SPGHSSAGQEGEDTLRRRWLAPEA [L19W]: the protein stability index was determined as 4.3.

For the variant SPGHSSAGQEGEDTLRRRMLAPEA [L19M], the protein stability index came to 3.39.

In the case of SPGHSSAGQEGEDTLRRRPLAPEA [L19P], the protein stability index was 5.29.

On to SPGHSSAGQEGEDTLRRRALAPEA [L19A], for which the protein stability index came to 5.4.

For SPGHSSAGQEGEDTLRRRTLAPEA [L19T], the protein stability index turned out to be 5.55.

As for SPGHSSAGQEGEDTLRRSLLAPEA [R18S], the protein stability index is 5.01.

As for SPGHSSAGQEGEDTLRRGLLAPEA [R18G], the protein stability index stood at 5.1.

For SPGHSSAGQEGEDTLRRFLLAPEA [R18F], the protein stability index came to 2.84.

Regarding SPGHSSAGQEGEDTLRRELLAPEA [R18E], the protein stability index is 5.45.

With SPGHSSAGQEGEDTLRRLLLAPEA [R18L], the protein stability index was 2.99.

Turning to SPGHSSAGQEGEDTLRRQLLAPEA [R18Q], the protein stability index came to 3.89.

As to SPGHSSAGQEGEDTLRRNLLAPEA [R18N], the protein stability index worked out at 4.98.

Consider SPGHSSAGQEGEDTLRRPLLAPEA [R18P], for which the protein stability index came to 5.5.

As for SPGHSSAGQEGEDTLRRTLLAPEA [R18T], the protein stability index was 4.58.

In the case of SPGHSSAGQEGEDTLRRHLLAPEA [R18H], the protein stability index was 4.6.

On to SPGHSSAGQEGEDTLRRKLLAPEA [R18K], for which the protein stability index was determined as 4.83.

As for SPGHSSAGQEGEDTLRRCLLAPEA [R18C], the protein stability index was 4.4.

Regarding SPGHSSAGQEGEDTLRRALLAPEA [R18A], the protein stability index was 4.8.

For the variant SPGHSSAGQEGEDTLRRDLLAPEA [R18D], the protein stability index worked out at 4.89.

Regarding SPGHSSAGQEGEDTLRRYLLAPEA [R18Y], the protein stability index came to 2.94.

For the variant SPGHSSAGQEGEDTLRRVLLAPEA [R18V], the protein stability index was 4.14.

For SPGHSSAGQEGEDTLRRILLAPEA [R18I], the protein stability index stood at 3.07.

For the variant SPGHSSAGQEGEDTLRRWLLAPEA [R18W], the protein stability index was 2.51.

Turning to SPGHSSAGQEGEDTLRRMLLAPEA [R18M], the protein stability index was 3.29.

Take SPGHSSAGQEGEDTLRRRLLAPSA [E23S]: the protein stability index amounted to 4.46.

SPGHSSAGQEGEDTLRRRLLAPRA [E23R]: the protein stability index came to 4.77.

Consider SPGHSSAGQEGEDTLRRRLLAPHA [E23H], for which the protein stability index was found to be 4.09.

In the case of SPGHSSAGQEGEDTLRRRLLAPLA [E23L], the protein stability index is 3.87.

Turning to SPGHSSAGQEGEDTLRRRLLAPVA [E23V], the protein stability index amounted to 4.38.

On to SPGHSSAGQEGEDTLRRRLLAPKA [E23K], for which the protein stability index is 4.95.

SPGHSSAGQEGEDTLRRRLLAPCA [E23C]: the protein stability index amounted to 4.42.

For the variant SPGHSSAGQEGEDTLRRRLLAPDA [E23D], the protein stability index worked out at 4.15.

With SPGHSSAGQEGEDTLRRRLLAPNA [E23N], the protein stability index came out at 4.46.

With SPGHSSAGQEGEDTLRRRLLAPIA [E23I], the protein stability index came to 4.1.

Consider SPGHSSAGQEGEDTLRRRLLAPYA [E23Y], for which the protein stability index was determined as 3.59.

In the case of SPGHSSAGQEGEDTLRRRLLAPQA [E23Q], the protein stability index worked out at 4.59.

With SPGHSSAGQEGEDTLRRRLLAPGA [E23G], the protein stability index came to 4.67.

As to SPGHSSAGQEGEDTLRRRLLAPTA [E23T], the protein stability index amounted to 4.53.

SPGHSSAGQEGEDTLRRRLLAPPA [E23P]: the protein stability index worked out at 5.13.

Consider SPGHSSAGQEGEDTLRRRLLAPWA [E23W], for which the protein stability index amounted to 3.98.

As for SPGHSSAGQEGEDTLRRRLLAPAA [E23A], the protein stability index turned out to be 4.71.

As for SPGHSSAGQEGEDTLRRRLLAPMA [E23M], the protein stability index was found to be 4.47.

Turning to SPGHSSAGQEGEDTLRRRLLAPFA [E23F], the protein stability index was 3.78.
